Test results from IntAct's records for PubMed 25327252.

B1: E3 ubiquitin-protein ligase RNF146 (Homo sapiens), Q9NTX7 (parent)
chain: MMAGCGEIDHSINMLPTNRKANESCSNTAPSLTVPECAICLQTCVHPVSLPCKHVFCYLCVKGASWLGKRCALCRQEIPEDFLDKPTLLSPEELKAASRGNGEYAWYYEGRNGWWQYDERTSRELEDAFSKGKKNTEMLIAGFLYVADLENMVQYRRNEHGRRRKIKRDIIDIPKKGVAGLRLDCDANTVNLARESSADGADSVSAQSGASVQPLVSSVRPLTSVDGQLTSPATPSPDASTSLEDSFAHLQLSGDNTAERSHRGEGEEDHESPSSGRVPAPDTSIEETESDASSDSEDVSAVVAQHSLTQQRLLVSNANQTVPDRSDRSGTDRSVAGGGTVSVSVRSRRPDGQCTVTEV

Variants of: B1
Conditions: with tnks1_human TNKS

Variant	effect of a mutation on the interaction
G338V;G339V	decreasing interaction strength

Variants of: B1
Conditions: with tnks1_human TNKS
Remark: another data set of the same source

Variant	effect of a mutation on the interaction
G200V	decreasing interaction strength
G200V;G338V;G339V	decreasing interaction strength
